Reference: publication PMC10783490, “Biochemical and cellular insights into the Baz2B protein, a non-catalytic subunit of the chromatin remodeling complex” (Nucleic Acids Research, 2023)

Key:
Details in all cases: protein: recombinant; tags: His6
TAM-AT1-AT2 Baz2B R765E = target: T1, TAM-AT1-AT2 Baz2B R765E (Homo sapiens, UniProt Q9UIF8 721-884, R765E); experiment: EMSA; EMSA: 20 mM HEPES pH 7.5, 30 mM KCl, 1 mM EDTA, 10 mM (NH4)2SO4, 1 mM DTT, 4 C, 10 nM probe; MST: same plus 0.1 ug/ml BSA, 5 nM probe, 25 C; GST-AT-hook and bromodomain EMSA as in cited refs
T1 sequence: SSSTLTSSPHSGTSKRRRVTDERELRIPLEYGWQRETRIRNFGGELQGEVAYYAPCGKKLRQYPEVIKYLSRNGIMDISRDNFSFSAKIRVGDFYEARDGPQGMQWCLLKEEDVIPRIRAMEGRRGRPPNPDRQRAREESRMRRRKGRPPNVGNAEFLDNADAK

TAM-AT1-AT2 Baz2B [1] = target: T2, TAM-AT1-AT2 Baz2B (Homo sapiens, UniProt Q9UIF8 721-884); experiment: as above
T2 sequence: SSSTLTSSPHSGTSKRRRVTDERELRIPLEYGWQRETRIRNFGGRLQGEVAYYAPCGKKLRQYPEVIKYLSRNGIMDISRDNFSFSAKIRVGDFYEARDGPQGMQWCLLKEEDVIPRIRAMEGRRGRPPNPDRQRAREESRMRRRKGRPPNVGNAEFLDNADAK

TAM-AT1-AT2 Baz2B Q767A = target: T3, TAM-AT1-AT2 Baz2B Q767A (Homo sapiens, UniProt Q9UIF8 721-884, Q767A); experiment: as above
T3 sequence: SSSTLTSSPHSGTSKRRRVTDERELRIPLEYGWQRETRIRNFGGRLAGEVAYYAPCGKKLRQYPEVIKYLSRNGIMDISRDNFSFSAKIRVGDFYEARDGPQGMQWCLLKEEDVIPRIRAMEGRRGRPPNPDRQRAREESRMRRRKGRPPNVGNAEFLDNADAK

TAM-AT1-AT2 Baz2B R781E = target: T4, TAM-AT1-AT2 Baz2B R781E (Homo sapiens, UniProt Q9UIF8 721-884, R781E); experiment: as above
T4 sequence: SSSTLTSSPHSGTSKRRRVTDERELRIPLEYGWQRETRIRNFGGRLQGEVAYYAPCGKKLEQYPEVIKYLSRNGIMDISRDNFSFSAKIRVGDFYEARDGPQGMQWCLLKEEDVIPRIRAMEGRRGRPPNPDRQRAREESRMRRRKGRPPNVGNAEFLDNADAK

TAM-AT1-AT2 Baz2B R837E = target: T5, TAM-AT1-AT2 Baz2B R837E (Homo sapiens, UniProt Q9UIF8 721-884, R837E); experiment: as above
T5 sequence: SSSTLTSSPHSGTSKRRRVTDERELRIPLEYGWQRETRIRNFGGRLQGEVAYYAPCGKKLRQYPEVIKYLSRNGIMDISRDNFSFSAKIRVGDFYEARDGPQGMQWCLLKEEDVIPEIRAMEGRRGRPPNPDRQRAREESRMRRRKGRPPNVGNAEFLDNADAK

TAM-AT1-AT2 Baz2B L766A = target: T6, TAM-AT1-AT2 Baz2B L766A (Homo sapiens, UniProt Q9UIF8 721-884, L766A); experiment: as above
T6 sequence: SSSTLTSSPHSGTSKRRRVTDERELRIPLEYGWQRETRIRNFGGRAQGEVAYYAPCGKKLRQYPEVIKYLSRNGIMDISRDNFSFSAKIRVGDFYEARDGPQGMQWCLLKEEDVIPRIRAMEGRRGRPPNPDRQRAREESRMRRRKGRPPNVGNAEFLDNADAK

TAM-AT1-AT2 Baz2B R760E = target: T7, TAM-AT1-AT2 Baz2B R760E (Homo sapiens, UniProt Q9UIF8 721-884, R760E); experiment: as above
T7 sequence: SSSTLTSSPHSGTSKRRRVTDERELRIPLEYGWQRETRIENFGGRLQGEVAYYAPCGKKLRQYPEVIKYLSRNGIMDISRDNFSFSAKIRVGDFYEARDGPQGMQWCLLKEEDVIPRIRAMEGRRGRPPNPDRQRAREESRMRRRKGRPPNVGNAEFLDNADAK

TAM-AT1-AT2 Baz2B [2] = target: T2, TAM-AT1-AT2 Baz2B; experiment: EMSA; mutant series; EMSA: 20 mM HEPES pH 7.5, 30 mM KCl, 1 mM EDTA, 10 mM (NH4)2SO4, 1 mM DTT, 4 C, 10 nM probe; MST: same plus 0.1 ug/ml BSA, 5 nM probe, 25 C; GST-AT-hook and bromodomain EMSA as in cited refs
TAM-AT1-AT2 Baz2B [3] = target: T2, TAM-AT1-AT2 Baz2B; experiment: MST; EMSA: 20 mM HEPES pH 7.5, 30 mM KCl, 1 mM EDTA, 10 mM (NH4)2SO4, 1 mM DTT, 4 C, 10 nM probe; MST: same plus 0.1 ug/ml BSA, 5 nM probe, 25 C; GST-AT-hook and bromodomain EMSA as in cited refs

Binder ATCAGTTCTCCGGGTTGTCAGGTCGACCAGTTGTTCCTTTGAGGT (ssDNA) [45 nt ssDNA FLP015] has a Kd (TAM-AT1-AT2 Baz2B R765E) of 93.1 ± 13 nM, a Kd (TAM-AT1-AT2 Baz2B [1]) of 122 nM and a Kd (TAM-AT1-AT2 Baz2B Q767A) of 206 ± 81 nM. It also gave a Kd (TAM-AT1-AT2 Baz2B R781E) of 220 ± 110 nM, a Kd (TAM-AT1-AT2 Baz2B R837E) of 248 ± 84.2 nM and a Kd (TAM-AT1-AT2 Baz2B L766A) of 275 ± 82.9 nM. The Kd (TAM-AT1-AT2 Baz2B R760E) was 161 ± 44.7 nM, the Kd (TAM-AT1-AT2 Baz2B [2]) was 228 ± 97.8 nM and the Kd (TAM-AT1-AT2 Baz2B [3]) was 160 nM.
